Here are results for 19 molecules from article PMC8450086, “Cooperative DNA binding mediated by KicGAS/ORF52 oligomerization allows inhibition of DNA-induced phase separation and activation of cGAS”.

Series [1] addresses T1, KicGAS (Kaposi sarcoma-associated herpesvirus …, UniProt Q2HR80 1-131).
T1 sequence: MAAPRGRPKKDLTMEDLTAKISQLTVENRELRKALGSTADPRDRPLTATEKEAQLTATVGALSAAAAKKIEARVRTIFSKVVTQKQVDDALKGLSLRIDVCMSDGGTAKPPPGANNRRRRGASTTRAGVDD
The series can be described thus: fluorescence polarization; Hill n 2.33; EMSA: 20 mM Tris-HCl pH 7.4, 150 mM NaCl, 10% glycerol, on ice, 20 nM FAM-DNA, gel at 4 C; FP: 400 pg/ul FAM-DNA, buffer and temperature not stated; Hill fits. Conditions: protein: recombinant; tags: Avi-His6-SUMO removed (tag-free); label: 5' FAM sense strand; blunt.

In series [2] the target is T1, KicGAS. The series can be described thus: fluorescence polarization; Hill n 2.05; EMSA: 20 mM Tris-HCl pH 7.4, 150 mM NaCl, 10% glycerol, on ice, 20 nM FAM-DNA, gel at 4 C; FP: 400 pg/ul FAM-DNA, buffer and temperature not stated; Hill fits. The following applies: protein: recombinant; tags: Avi-His6-SUMO removed (tag-free); label: 5' FAM sense strand; blunt.
Series [3] has as its target T1, KicGAS. The series can be described thus: fluorescence polarization; Hill n 0.90; EMSA: 20 mM Tris-HCl pH 7.4, 150 mM NaCl, 10% glycerol, on ice, 20 nM FAM-DNA, gel at 4 C; FP: 400 pg/ul FAM-DNA, buffer and temperature not stated; Hill fits. The following applies: protein: recombinant; tags: Avi-His6-SUMO removed (tag-free); label: 5' FAM. A general note: In fluorescence polarisation assays a small probe gives low polarisation when free and higher when bound to something large.

Series [4] deals with T1, KicGAS. The series can be described thus: fluorescence polarization; Hill n 1.88; EMSA: 20 mM Tris-HCl pH 7.4, 150 mM NaCl, 10% glycerol, on ice, 20 nM FAM-DNA, gel at 4 C; FP: 400 pg/ul FAM-DNA, buffer and temperature not stated; Hill fits. The following applies: protein: recombinant; tags: Avi-His6-SUMO removed (tag-free); label: 5' FAM sense strand; blunt.
For series [5], the target named is T1, KicGAS. The series can be described thus: fluorescence polarization; Hill n 2.21; EMSA: 20 mM Tris-HCl pH 7.4, 150 mM NaCl, 10% glycerol, on ice, 20 nM FAM-DNA, gel at 4 C; FP: 400 pg/ul FAM-DNA, buffer and temperature not stated; Hill fits. The following applies: protein: recombinant; tags: Avi-His6-SUMO removed (tag-free); label: 5' FAM.
Series [6] has as its target T1, KicGAS. The series can be described thus: fluorescence polarization; Hill n 2.31; EMSA: 20 mM Tris-HCl pH 7.4, 150 mM NaCl, 10% glycerol, on ice, 20 nM FAM-DNA, gel at 4 C; FP: 400 pg/ul FAM-DNA, buffer and temperature not stated; Hill fits. Conditions: protein: recombinant; tags: Avi-His6-SUMO removed (tag-free); label: 5' FAM sense strand; blunt.
Series [7] concerns the target T1, KicGAS. The series can be described thus: EMSA; Hill n 1.95; EMSA: 20 mM Tris-HCl pH 7.4, 150 mM NaCl, 10% glycerol, on ice, 20 nM FAM-DNA, gel at 4 C; FP: 400 pg/ul FAM-DNA, buffer and temperature not stated; Hill fits. Conditions: protein: recombinant; tags: Avi-His6-SUMO removed (tag-free); label: 5' FAM sense strand; blunt. On the technique in general: A gel shift assay detects complexes by their altered migration in electrophoresis.

In series [8] the target is T1, KicGAS. The series can be described thus: fluorescence polarization; Hill n 1.84; EMSA: 20 mM Tris-HCl pH 7.4, 150 mM NaCl, 10% glycerol, on ice, 20 nM FAM-DNA, gel at 4 C; FP: 400 pg/ul FAM-DNA, buffer and temperature not stated; Hill fits. The following applies: protein: recombinant; tags: Avi-His6-SUMO removed (tag-free); label: 5' FAM sense strand; blunt.
In series [9] the target is T1, KicGAS. The series is described as follows: fluorescence polarization; Hill n 1.69; EMSA: 20 mM Tris-HCl pH 7.4, 150 mM NaCl, 10% glycerol, on ice, 20 nM FAM-DNA, gel at 4 C; FP: 400 pg/ul FAM-DNA, buffer and temperature not stated; Hill fits. Conditions: protein: recombinant; tags: Avi-His6-SUMO removed (tag-free); label: 5' FAM sense strand; blunt.
In series [10] the target is T1, KicGAS. The series is described as follows: fluorescence polarization; EMSA: 20 mM Tris-HCl pH 7.4, 150 mM NaCl, 10% glycerol, on ice, 20 nM FAM-DNA, gel at 4 C; FP: 400 pg/ul FAM-DNA, buffer and temperature not stated; Hill fits. The following applies: protein: recombinant; tags: Avi-His6-SUMO removed (tag-free); label: 5' FAM sense strand; blunt.
The target in series [11] is T1, KicGAS. The series is described as follows: EMSA; Hill n 2.20; EMSA: 20 mM Tris-HCl pH 7.4, 150 mM NaCl, 10% glycerol, on ice, 20 nM FAM-DNA, gel at 4 C; FP: 400 pg/ul FAM-DNA, buffer and temperature not stated; Hill fits. Conditions: protein: recombinant; tags: Avi-His6-SUMO removed (tag-free); label: 5' FAM sense strand; blunt.
For series [12], the target named is T1, KicGAS. The series is described as follows: fluorescence polarization; Hill n 2.1; EMSA: 20 mM Tris-HCl pH 7.4, 150 mM NaCl, 10% glycerol, on ice, 20 nM FAM-DNA, gel at 4 C; FP: 400 pg/ul FAM-DNA, buffer and temperature not stated; Hill fits. The following applies: protein: recombinant; tags: Avi-His6-SUMO removed (tag-free); label: 5' FAM sense strand; blunt.

Series [13] addresses T1, KicGAS. The series is described as follows: fluorescence polarization; Hill n 1.85; EMSA: 20 mM Tris-HCl pH 7.4, 150 mM NaCl, 10% glycerol, on ice, 20 nM FAM-DNA, gel at 4 C; FP: 400 pg/ul FAM-DNA, buffer and temperature not stated; Hill fits. Conditions: protein: recombinant, tags: Avi-His6-SUMO removed (tag-free).
In series [14] the target is T1, KicGAS. The series can be described thus: fluorescence polarization; Hill n 1.33; EMSA: 20 mM Tris-HCl pH 7.4, 150 mM NaCl, 10% glycerol, on ice, 20 nM FAM-DNA, gel at 4 C; FP: 400 pg/ul FAM-DNA, buffer and temperature not stated; Hill fits. The following applies: protein: recombinant; tags: Avi-His6-SUMO removed (tag-free); label: 5' FAM.
Series [15] deals with T1, KicGAS. The series can be described thus: fluorescence polarization; Hill n 2.55; EMSA: 20 mM Tris-HCl pH 7.4, 150 mM NaCl, 10% glycerol, on ice, 20 nM FAM-DNA, gel at 4 C; FP: 400 pg/ul FAM-DNA, buffer and temperature not stated; Hill fits. The following applies: protein: recombinant; tags: Avi-His6-SUMO removed (tag-free); label: 5' FAM sense strand; blunt.
The target of series [16] is T1, KicGAS. The series can be described thus: fluorescence polarization; Hill n 2.24; EMSA: 20 mM Tris-HCl pH 7.4, 150 mM NaCl, 10% glycerol, on ice, 20 nM FAM-DNA, gel at 4 C; FP: 400 pg/ul FAM-DNA, buffer and temperature not stated; Hill fits. Conditions: protein: recombinant, tags: Avi-His6-SUMO removed (tag-free).
Series [17] concerns the target T1, KicGAS. The series is described as follows: fluorescence polarization; Hill n 1.50; EMSA: 20 mM Tris-HCl pH 7.4, 150 mM NaCl, 10% glycerol, on ice, 20 nM FAM-DNA, gel at 4 C; FP: 400 pg/ul FAM-DNA, buffer and temperature not stated; Hill fits. The following applies: protein: recombinant; tags: Avi-His6-SUMO removed (tag-free); label: 5' FAM.
In series [18] the target is T1, KicGAS. The series is described as follows: fluorescence polarization; Hill n 2.15; EMSA: 20 mM Tris-HCl pH 7.4, 150 mM NaCl, 10% glycerol, on ice, 20 nM FAM-DNA, gel at 4 C; FP: 400 pg/ul FAM-DNA, buffer and temperature not stated; Hill fits. The following applies: protein: recombinant; tags: Avi-His6-SUMO removed (tag-free); label: 5' FAM.
The target of series [19] is T1, KicGAS. The series is described as follows: fluorescence polarization; Hill n 1.70; EMSA: 20 mM Tris-HCl pH 7.4, 150 mM NaCl, 10% glycerol, on ice, 20 nM FAM-DNA, gel at 4 C; FP: 400 pg/ul FAM-DNA, buffer and temperature not stated; Hill fits. Conditions: protein: recombinant; tags: Avi-His6-SUMO removed (tag-free); label: 5' FAM sense strand; blunt.

As a reminder, the Kd is the equilibrium constant for the complex coming apart.

B1: 0% GC (dsDNA)
DNA 1: ATTTAATAATAATTTATTAT
DNA 2: ATAATAAATTATTATTAAAT
Consider B1, for which the Kd in the series with KicGAS [1] amounted to 800 ± 50 nM.

B2: 90% GC (dsDNA)
DNA 1: CCGCCAGCCCGCGGGCTGGC
DNA 2: GCCAGCCCGCGGGCTGGCGG
In the case of B2, the Kd with KicGAS [2] came out at 1160 ± 80 nM.

B3: ssISD20 (ssDNA)
DNA: ATCTATGACTGATCTGTACA
As to B3, the Kd in the series with KicGAS [3] was 5080 ± 400 nM.

B4: ISD30 (dsDNA)
DNA 1: ATCTACTAGTGATCTATGACTGATCTGTAC
DNA 2: GTACAGATCAGTCATAGATCACTAGTAGAT
Take B4: the Kd with KicGAS [4] was 290 ± 20 nM.

B5: ssVACV72 (ssDNA)
DNA: ATCCATCAGAAAGAGGTTTAATATTTTTGTGAGACCATCGAAGAGAGAAAGAGATAAAACTTTTTTACGACT
As for B5, the Kd in the series with KicGAS [5] turned out to be 130 ± 10 nM.

B6: 30% GC (dsDNA)
DNA 1: ATATCGCTATAGATATCATC
DNA 2: GATGATATCTATAGCGATAT
In the case of B6, in the series with KicGAS [6], the Kd came out at 1070 ± 60 nM.

B7: ISD25 (dsDNA)
DNA 1: CTAGTGATCTATGACTGATCTGTAC
DNA 2: GTACAGATCAGTCATAGATCACTAG
Regarding B7, the Kd with KicGAS [7] turned out to be 380 ± 30 nM; with KicGAS [8], 440 ± 30 nM.

B8: dsRNA45 (dsRNA)
RNA 1: UACAGAUCUACUAGUGAUCUAUGACUGAUCUGUACAUGAUCUACA
RNA 2: UGUAGAUCAUGUACAGAUCAGUCAUAGAUCACUAGUAGAUCUGUA
For the molecule B8, the Kd with KicGAS [9] was determined as 560 ± 50 nM.

B9: ISD12 (dsDNA)
DNA 1: ACTGATCTGTAC
DNA 2: GTACAGATCAGT
B9: the binding result with KicGAS [10] is recorded as “no binding”.

B10: ISD45 (dsDNA)
DNA 1: TACAGATCTACTAGTGATCTATGACTGATCTGTACATGATCTACA
DNA 2: TGTAGATCATGTACAGATCAGTCATAGATCACTAGTAGATCTGTA
Regarding B10, the figures for the Kd with KicGAS [11] and in the series with KicGAS [12] were 120 ± 10 nM and 150 ± 20 nM, respectively.

B11: ssISD45 (ssDNA)
DNA: B10 DNA 1
B11: the Kd with KicGAS [13] (label: 5' FAM) was found to be 260 ± 10 nM.

B12: DNA-RNA hybrid 45 (DNA:RNA)
RNA: B8 RNA 1
DNA: B10 DNA 2
Consider B12, for which, in the series with KicGAS [13] (label: 5' FAM sense strand (RNA), blunt), the Kd stood at 300 ± 20 nM.

B13: ssISD25 (ssDNA)
DNA: CTAGTGATCTATGACTGATCTGTAC
For B13, the Kd with KicGAS [14] amounted to 1580 ± 220 nM.

B14: KS90 (dsDNA)
DNA 1: TCGTCTCGCCTGTCAAATCGTCTATGTTTTTCGGCGCGTTGTGCCAATATAACTCTAGAAACTAATACTGTATCTGTCAGCAGTACTACA
DNA 2: TGTAGTACTGCTGACAGATACAGTATTAGTTTCTAGAGTTATATTGGCACAACGCGCCGAAAAACATAGACGATTTGACAGGCGAGACGA
For B14, in the series with KicGAS [15], the Kd is 100 ± 10 nM.

B15: ssKS90 (ssDNA)
DNA: B14 DNA 1
On to B15, for which the Kd with KicGAS [16] (label: 5' FAM) was determined as 100 ± 10 nM.

B16: ssISD30 (ssDNA)
DNA: B4 DNA 1
In the case of B16, in the series with KicGAS [17], the Kd is 720 ± 50 nM.

B17: ssHSV60 (ssDNA)
DNA: TAAGACACGATGCGATAAAATCTGTTTGTAAAATTTATTAAGGGTACAAATT
Turning to B17, the Kd with KicGAS [18] was determined as 170 ± 10 nM.

B18: HSV60 (dsDNA)
DNA 1: B17 DNA
DNA 2: AATTTGTACCCTTAATAAATTTTACAAACAGATTTTATCGCATCGTGTCTTA
With B18, the Kd with KicGAS [16] (label: 5' FAM sense strand, blunt) is 160 ± 10 nM.

B19: ISD20 (dsDNA)
DNA 1: ATCTATGACTGATCTGTACA
DNA 2: TGTACAGATCAGTCATAGAT
Turning to B19, in the series with KicGAS [19], the Kd was 820 ± 80 nM.
